Positions count from the first letter of the chain named. Like-named read-outs stand apart in the source and are kept apart here.
Experiments:
[1] = target: T1, human CD20 (human, UniProt P11836 1-297); assay: cell-based or functional assay
T1 sequence: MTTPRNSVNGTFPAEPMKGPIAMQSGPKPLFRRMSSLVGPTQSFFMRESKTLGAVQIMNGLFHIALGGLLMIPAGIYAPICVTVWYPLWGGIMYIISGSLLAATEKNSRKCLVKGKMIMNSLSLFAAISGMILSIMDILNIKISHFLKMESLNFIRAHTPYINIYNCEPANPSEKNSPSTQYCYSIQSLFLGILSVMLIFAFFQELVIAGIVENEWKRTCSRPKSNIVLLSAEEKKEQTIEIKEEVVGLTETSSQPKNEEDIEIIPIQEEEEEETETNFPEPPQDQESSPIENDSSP

[2] = target: T1, human CD20; assay: cell-based or functional assay; remark: listed apart in the source
[3] = target: T1, human CD20; assay: cell-based or functional assay; remark: listed apart in the source
[4] = target: T1, human CD20; assay: flow cytometry, hCD20-transfected MG87 cells
Method: Briefly, parental MG87 and human CD20-transfected MG87 cells were incubated for 30 min at 4° C. with each of the 15 human antibodies and the two control antibodies, followed by incubation with PE-conjugated anti-human IgG antibody. Binding was assessed by flow cytometry. Fluorescence intensities were compared with binding to the parental cell line and control isotype-matched sample.

[5] = target: T1, human CD20; assay: cell-based or functional assay; remark: listed apart in the source
[6] = target: T2, mutant human CD20 #10 (A157V) (human, UniProt P11836 1-297); assay: FACS, mutant-hCD20 MG87 cells; 100%=best antibody
T2 construct: Stably expressed on MG87 cells
T2 sequence: T1 sequence with A157V
Method: (§1) Briefly, approximately 1×10⁶ cells from each stably transfected cell line expressing a mutant human CD20 were collected and incubated with each anti-human antibody, at 10 μg/ml, on ice for 1 hr, followed by incubation with APC-conjugated goat anti-human IgG (Jackson Immunolabs), at 10 μg/ml, on ice for 45 min. For each antibody, binding to each mutant human CD20 was assessed by flow cytometry.

[7] = target: T3, mutant human CD20 #2 (N163D) (human, UniProt P11836 1-297); assay: FACS, mutant-hCD20 MG87 cells; 100%=best antibody
T3 construct: Stably expressed on MG87 cells
T3 sequence: T1 sequence with N163D
Method: as §1

[8] = target: T4, mutant human CD20 #3 (A170S, P172S) (human, UniProt P11836 1-297); assay: FACS, mutant-hCD20 MG87 cells; 100%=best antibody
T4 construct: Stably expressed on MG87 cells
T4 chain: T1 sequence with A170S, P172S
Method: as §1

[9] = target: T5, mutant human CD20 #1 (Y77F) (human, UniProt P11836 1-297); assay: FACS, mutant-hCD20 MG87 cells; 100%=best antibody
T5 construct: Human residues replaced by mouse residues; stably expressed on MG87 cells
T5 sequence: T1 sequence with Y77F
Method: as §1

[10] = target: T6, mutant human CD20 #4 (N166D) (human, UniProt P11836 1-297); assay: FACS, mutant-hCD20 MG87 cells; 100%=best antibody
T6 construct: Stably expressed on MG87 cells
T6 sequence: T1 sequence with N166D
Method: as §1

[11] = target: T7, mutant human CD20 #8 (Y77F, N163D, N166D) (human, UniProt P11836 1-297); assay: FACS, mutant-hCD20 MG87 cells; 100%=best antibody
T7 construct: Stably expressed on MG87 cells
T7 chain: T1 sequence with Y77F, N163D, N166D
Method: as §1

[12] = target: T8, mutant human CD20 #6 (Y77F, N166D) (human, UniProt P11836 1-297); assay: FACS, mutant-hCD20 MG87 cells; 100%=best antibody
T8 construct: Stably expressed on MG87 cells
T8 chain: T1 sequence with Y77F, N166D
Method: as §1

[13] = target: T9, mutant human CD20 #9 (N163D, N166D) (human, UniProt P11836 1-297); assay: FACS, mutant-hCD20 MG87 cells; 100%=best antibody
T9 construct: Stably expressed on MG87 cells
T9 chain: T1 sequence with N163D, N166D
Method: as §1

[14] = target: T10, mutant human CD20 #7 (Y77F, N163D) (human, UniProt P11836 1-297); assay: FACS, mutant-hCD20 MG87 cells; 100%=best antibody
T10 construct: Stably expressed on MG87 cells
T10 chain: T1 sequence with Y77F, N163D
Method: as §1

B1: rituximab (RITUXAN, IDEC Pharmaceuticals Corp.) (antibody, V domains shown)
VH: QVQLQQPGAELVKPGASVKMSCKASGYTFTSYNMHWVKQTPGRGLEWIGAIYPGNGDTSYNQKFKGKATLTADKSSSTAYMQLSSLTSEDSAVYYCARSTYYGGDWYFNVWGAGTTVTVSA
VL: QIVLSQSPAILSASPGEKVTMTCRASSSVSYIHWFQQKPGSSPKPWIYATSNLASGVPVRFSGSGSGTSYSLTISRVEAEDAATYYCQQWTSNPPTFGGGTKLEIK
B1 was tested, and the “% Cytotoxicity (CDC, Daudi), 0 hour” value [1] was 91.9%, the “% Cytotoxicity (CDC, Daudi), 1 hour” value [1] was 65.3% and the “% Cytotoxicity (CDC, Daudi), 6 hour” value [1] was 52.1%. For the same binder, the “% Cytotoxicity (CDC, Daudi), 0 hour” value [2] was 98.5%, the “% Cytotoxicity (CDC, Daudi), 1 hour” value [2] was 86.9% and the “% Cytotoxicity (CDC, Daudi), 6 hour” value [2] was 16%. For the same binder, the “CDC, Daudi EC50” value [3] was 0.84 nM, the “CDC, RL EC50” value [3] was > 50 nM and the “Total Mean Fluorescent Intensity” value [4] was 2960. The “% Cytotoxicity (CDC, Daudi), 0 hour” value [5] was 98.3%, the “% Cytotoxicity (CDC, Daudi), 1 hour” value [5] was 81.1% and the “% Cytotoxicity (CDC, Daudi), 6 hour” value [5] was 20.5%.

B2: 2F2 (antibody, V domains shown)
VH: EVQLVESGGGLVQPGRSLRLSCAASGFTFNDYAMHWVRQAPGKGLEWVSTISWNSGSIGYADSVKGRFTISRDNAKKSLYLQMNSLRAEDTALYYCAKDIQYGNYYYGMDVWGQGTTVTVSS
VL: EIVLTQSPATLSLSPGERATLSCRASQSVSSYLAWYQQKPGQAPRLLIYDASNRATGIPARFSGSGSGTDFTLTISSLEPEDFAVYYCQQRSNWPITFGQGTRLEIK
In the case of B2, the “Percent of Binding to Mutant Human CD20” value [6] is reported as 79%, the “Percent of Binding to Mutant Human CD20” value [7] is reported as 30% and the “Percent of Binding to Mutant Human CD20” value [8] is reported as 70%. The “Percent of Binding to Mutant Human CD20” value [9] was 60%, the “Percent of Binding to Mutant Human CD20” value [10] was 51% and the “Percent of Binding to Mutant Human CD20” value [11] was 0%. For the same binder, the “Percent of Binding to Mutant Human CD20” value [12] was 1%, the “Percent of Binding to Mutant Human CD20” value [13] was 4% and the “Percent of Binding to Mutant Human CD20” value [14] was 1%.

Source: US20090035322A1 (Regeneron, published 2009)
